From US7326418B2, “Identification of novel factors that block programmed cell death or apoptosis by targeting JNK” (University of Chicago, priority 2001, dated 2008)

Target: T1, ASK1 (Homo sapiens, UniProt Q99683)
T1 sequence (Q99683 1-1374): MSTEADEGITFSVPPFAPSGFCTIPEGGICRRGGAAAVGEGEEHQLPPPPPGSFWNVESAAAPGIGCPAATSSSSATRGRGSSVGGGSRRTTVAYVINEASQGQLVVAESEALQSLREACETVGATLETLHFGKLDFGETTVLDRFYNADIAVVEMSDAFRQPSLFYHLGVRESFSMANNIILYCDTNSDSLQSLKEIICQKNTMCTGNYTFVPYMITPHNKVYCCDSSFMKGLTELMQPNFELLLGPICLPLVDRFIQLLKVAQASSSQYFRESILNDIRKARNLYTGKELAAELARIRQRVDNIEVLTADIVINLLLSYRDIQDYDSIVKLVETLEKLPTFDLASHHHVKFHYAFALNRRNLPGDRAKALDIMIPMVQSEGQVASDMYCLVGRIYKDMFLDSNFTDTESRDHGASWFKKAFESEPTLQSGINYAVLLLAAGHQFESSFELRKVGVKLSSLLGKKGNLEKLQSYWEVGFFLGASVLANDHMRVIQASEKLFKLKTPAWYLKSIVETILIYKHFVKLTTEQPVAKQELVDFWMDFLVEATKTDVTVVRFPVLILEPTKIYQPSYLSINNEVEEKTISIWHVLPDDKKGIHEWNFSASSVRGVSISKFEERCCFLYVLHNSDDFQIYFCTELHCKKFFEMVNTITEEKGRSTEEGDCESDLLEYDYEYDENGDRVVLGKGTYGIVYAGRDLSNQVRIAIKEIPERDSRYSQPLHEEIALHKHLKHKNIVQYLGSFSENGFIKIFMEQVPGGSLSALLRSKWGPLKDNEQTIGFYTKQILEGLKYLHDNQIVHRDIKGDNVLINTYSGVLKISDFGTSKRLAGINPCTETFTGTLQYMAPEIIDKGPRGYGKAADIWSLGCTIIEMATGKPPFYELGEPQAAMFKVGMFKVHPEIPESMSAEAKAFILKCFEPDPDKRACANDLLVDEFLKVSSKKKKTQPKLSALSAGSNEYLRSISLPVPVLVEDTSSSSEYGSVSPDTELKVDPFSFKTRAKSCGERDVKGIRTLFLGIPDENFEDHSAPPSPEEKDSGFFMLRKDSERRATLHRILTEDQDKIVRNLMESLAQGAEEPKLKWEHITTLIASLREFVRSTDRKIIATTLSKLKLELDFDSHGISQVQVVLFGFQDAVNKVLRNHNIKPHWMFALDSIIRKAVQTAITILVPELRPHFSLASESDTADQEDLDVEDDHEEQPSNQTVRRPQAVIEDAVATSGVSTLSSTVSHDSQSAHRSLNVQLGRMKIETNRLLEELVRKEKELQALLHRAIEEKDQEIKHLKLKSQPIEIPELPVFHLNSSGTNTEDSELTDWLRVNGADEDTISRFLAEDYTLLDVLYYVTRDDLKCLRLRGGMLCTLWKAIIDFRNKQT
Test: Kinase assay of immunoprecipitated FLAG-ASK1 with recombinant Gadd45β proteins
Assay type: biochemical
Design: expressed in transfected cells; host or cells: HEK-293; anti-FLAG immunoprecipitate
Conditions: in vitro, even at high concentrations
Procedure: Next, the functional consequences, in vitro, of the physical interactions of Gadd45β with kinases in the JNK pathway were assessed. Murine and human, full-length Gadd45J3 proteins were purified from E. coli as GST-Gadd45β and His6-tagged Gadd45β (His6 disclosed as SEQ ID NO: 46), respectively, according to standard procedures. Prior to employing these proteins in in vitro assays, purity of all recombinant polypeptides was assured by >98%, by performing Coomassie blue staining of SDS polyacrylamide gels. Then, the ability of these proteins, as well as of control GST and His6-EF3 (His6 disclosed as SEQ ID NO: 46)proteins, to inhibit kinases in the JNK pathways was monitored in vitro. FLAG-tagged JNKK2, JNKK1, MKK3, and ASK1 were immunoprecipitated from transiently transfected 293 cells using anti-FLAG antibodies and pre-incubated for 10 minutes with increasing concentrations of recombinant proteins, prior to the addition of specific kinase substrates (i.e. GST-JNK1 with JNKK1 and JNKK2; GST-p38[…] with MKK3; GST-JNNK1 or GST-JNKK2 with ASK1). […] These findings indicate that, upon binding to Gadd45β, JNKK2 is effectively inactivated.
A question was whether Gadd45β inhibited active MKK7, in vitro. FLAG-MKK7 was immunoprecipitated from TNFα-treated or untreated 293 cells, and kinase assays were performed in the presence of purified His6-Gadd45β (His6 disclosed as SEQ ID NO: 46), GST-Gadd45β, or control proteins (FIG. 28d; see also FIG. 28g). […] Consistent with the in vivo findings (FIG. 27), the inhibitory activity of Gadd45β was specific. […] Indeed, the effects of Gadd45β on MKK7 phosphorylation by TNFα may be due inhibition of the MKK7 ability to auto-phoshorylate and/or to serve as substrate for upstream kinases. Altogether, the findings identify MKK7 as a target of Gadd45β, and of NF-[…]B, in the JNK cascade. Of interest, MKK7 is a selective activator of JNK, and its ablation abolishes JNK activation by TNFα. Thus, blockade of MKK7 is sufficient on its own to explain the effects of Gadd45β on JNK signaling—i.e. its specific and near-complete suppression of this signaling. […]

B1: Gadd45β: purified recombinant His6-tagged Gadd45β protein; also used generically for the recombinant Gadd45β proteins (protein, UniProt O75293 1-160, looked up)
Growth arrest and DNA …: MTLEELVACDNAAQKMQTVTAAVEELLVAAQRQDRLTVGVYESAKLMNVDPDSVVLCLLAIDEEEEDDIALQIHFTLIQSFCCDNDINIVRVSGMQRLAQLLGEPAETQGTTEARDLHCLLVTNPHTDAWKSHGLVEVASYCEESRGNNQWVPYISLQER
modifications: His6 tag
notes: purified recombinant His6-tagged Gadd45β protein; also used generically for the recombinant Gadd45β proteins
In the case of B1, the “effect on ASK1 kinase activity” value is reported as “did not hamper”.

B2: His6-Gadd45β: human full-length Gadd45β purified from E. coli as His6-tagged protein (protein, UniProt O75293 1-160, looked up)
chain: B1 Growth arrest and DNA …
modifications: full-length His6 tag
notes: human full-length Gadd45β purified from E. coli as His6-tagged protein
B2 was tested, and the “effect on ASK1 kinase activity” value was “neither GST-Gadd45β nor His6-Gadd45β (His6 disclosed as SEQ ID NO: 46) had significant effects”.

B3: GST-Gadd45β: full-length murine Gadd45β directly fused to GST, purified from E. coli (protein)
chain: MTLEELVASDNAVQKMQAVTAAVEQLLVAAQRQDRLTVGVYEAAKLMNVDPDSVVLCLLAIDEEEEDDIALQIHFTLIQSFCCDNDIDIVRVSGMQRLAQLLGEPAETLGTTEARDLHCLLVTNCHTDSWKSQGLVEVASYCEESRGNNQWVPYISLEER
modifications: left off: a dimerising Fc or GST
notes: full-length murine Gadd45β directly fused to GST, purified from E. coli
B3 was tested, and the “effect on ASK1 kinase activity” value was “neither GST-Gadd45β nor His6-Gadd45β (His6 disclosed as SEQ ID NO: 46) had significant effects”.
